Data taken from paper PMC4557296.

Assays:
[1] = target: H3K9me3 (100%) chromatin array (12 nucleosomes) (human) (UniProt P68431); test: smTIRFM (single-molecule total internal reflection fluorescence microscopy); as a3, with 1000 nM unlabelled HP1α added to 1 nM Atto532-labelled HP1α
[2] = target: Atto532-labelled HP1α (human); test: smTIRFM (fluorescence intensities of individual binding events); as a10, in the presence of 1 μM peptide P3
[3] = target: H3K9me3 (100%) chromatin array (12 nucleosomes) (human) (UniProt P68431); test: smTIRFM (single-molecule total internal reflection fluorescence microscopy); as a3, with the mutated peptide P4 added (concentration not given)
[4] = target: H3K9me3 (100%) chromatin array (12 nucleosomes) (human) (UniProt P68431); test: smTIRFM (single-molecule total internal reflection fluorescence microscopy); as a3, with 50 nM unlabelled HP1α added to 1 nM Atto532-labelled HP1α
[5] = target: H3K9me3 (100%) chromatin array (12 nucleosomes) (human) (UniProt P68431); test: smTIRFM (single-molecule total internal reflection fluorescence microscopy); chromatin arrays or mononucleosomes immobilised by biotin-neutravidin on PEG-passivated coverslips; 1 nM Atto532-labelled HP1α or 0.5 nM HP1αcdm in 50 mM HEPES, 130 mM KCl, 10% glycerol, 2 mM trolox, 0.005% tween-20, glucose and oxygen removal system; dwell-time histograms; apparent KD for a nucleosome in an array, calculated from the fast phase
[6] = target: H3K9me3 (100%) chromatin array (12 nucleosomes) (human) (UniProt P68431); test: smTIRFM (single-molecule total internal reflection fluorescence microscopy); as a3, in the presence of 1 μM peptide P3
[7] = target: Atto532-labelled HP1α (human); test: smTIRFM (fluorescence intensities of individual binding events); 1 nM Atto532-labelled HP1α on immobilised chromatin arrays; share of events with the intensity of a dimer
[8] = target: H3K9me3 (100%) chromatin array (12 nucleosomes) (human) (UniProt P68431); test: smTIRFM (single-molecule total internal reflection fluorescence microscopy); chromatin arrays or mononucleosomes immobilised by biotin-neutravidin on PEG-passivated coverslips; 1 nM Atto532-labelled HP1α or 0.5 nM HP1αcdm in 50 mM HEPES, 130 mM KCl, 10% glycerol, 2 mM trolox, 0.005% tween-20, glucose and oxygen removal system; dwell-time histograms; apparent KD for a nucleosome in an array, calculated from the fast phase; remark: listed apart in the source
[9] = target: H3K9me3 (100%) chromatin array (12 nucleosomes) (human) (UniProt P68431); test: smTIRFM (single-molecule total internal reflection fluorescence microscopy); as a3, with 250 nM unlabelled HP1α added to 1 nM Atto532-labelled HP1α
[10] = target: H3K9me3 (100%) chromatin array (12 nucleosomes) (human) (UniProt P68431); test: smTIRFM (single-molecule total internal reflection fluorescence microscopy); chromatin arrays or mononucleosomes immobilised by biotin-neutravidin on PEG-passivated coverslips; 1 nM Atto532-labelled HP1α or 0.5 nM HP1αcdm in 50 mM HEPES, 130 mM KCl, 10% glycerol, 2 mM trolox, 0.005% tween-20, glucose and oxygen removal system; dwell-time histograms; apparent KD for a nucleosome in an array, calculated from the fast phase; remark: listed apart in the source
[11] = target: H3K9me3 (75%) chromatin array (12 nucleosomes) (human) (UniProt P68431); test: as above
[12] = target: H3K9me3 (25%) chromatin array (12 nucleosomes) (human) (UniProt P68431); test: as above
[13] = target: H3K9me0 (unmodified) chromatin array (12 nucleosomes) (human) (UniProt P68431); test: as above
[14] = target: H3K9me3 (50%) chromatin array (12 nucleosomes) (human) (UniProt P68431); test: as above
[15] = target: H3K9me3 mononucleosome (human) (UniProt P68431); test: as above
[16] = target: H3K9me3 (100%) chromatin array (12 nucleosomes) (human) (UniProt P68431); test: as above; remark: listed apart in the source
HP1α (I163E) (human) = HP1α (I163E) (human) (UniProt P45973); test: MST; H3K9me3 1–14 peptide serially diluted (0.1–100 μM) and mixed 1:1 with a 300 nM stock of Atto532-labelled HP1α or HP1αcdm; 150 mM NaCl, 50 mM HEPES, 0.05% Tween, 1 mM DTT, pH 7.5; quadratic binding equation
[17] = target: Atto532-labelled HP1α (human); test: as above
[18] = target: HP1αcdm (covalently dimerized HP1α, Atto532-labelled) (human) (UniProt P45973); test: as above

Chain of HP1α (W40A) (P45973 whole entry, stated change not applied): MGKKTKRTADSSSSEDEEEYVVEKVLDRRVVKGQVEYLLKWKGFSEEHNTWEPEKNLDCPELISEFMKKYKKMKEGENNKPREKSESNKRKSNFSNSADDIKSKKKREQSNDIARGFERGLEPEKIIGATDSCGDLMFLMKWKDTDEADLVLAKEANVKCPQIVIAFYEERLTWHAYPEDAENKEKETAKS

Substance: Atto532-labelled HP1α (natural protein)
- Kd [1]: 3.11 µM
- kon [1]: 2.92e+06 M⁻¹ s⁻¹
- λon (apparent association time constant) [1]: 29.3 s
- τoff,1 (fast phase of dissociation) [1]: 0.11 s
- τoff,2 (slow phase of dissociation) [1]: 2.75 s
- percent dimeric HP1α [2]: 42%
- Kd [3]: 0.84 µM
- kon [3]: 4.25e+06 M⁻¹ s⁻¹
- λon (apparent association time constant) [3]: 19.6 s
- τoff,1 (fast phase of dissociation) [3]: 0.28 s
- τoff,2 (slow phase of dissociation) [3]: 4.45 s
- Kd [4]: 1.48 µM
- kon [4]: 3.55e+06 M⁻¹ s⁻¹
- λon (apparent association time constant) [4]: 23.8 s
- τoff,1 (fast phase of dissociation) [4]: 0.19 s
- τoff,2 (slow phase of dissociation) [4]: 3.97 s
- τoff,2 (slow phase of dissociation) [5]: 2.3 s
- Kd [6]: 0.38 µM
- kon [6]: 7.94e+06 M⁻¹ s⁻¹
- λon (apparent association time constant) [6]: 10.5 s
- τoff,1 (fast phase of dissociation) [6]: 0.33 s
- τoff,2 (slow phase of dissociation) [6]: 4.8 s
- percent of binding events attributed to dimeric protein [7]: 17%
- kon [8]: 3.58e+06 M⁻¹ s⁻¹
- Kd [9]: 3.72 µM
- kon [9]: 2.07e+06 M⁻¹ s⁻¹
- λon (apparent association time constant) [9]: 43.3 s
- τoff,1 (fast phase of dissociation) [9]: 0.13 s
- τoff,2 (slow phase of dissociation) [9]: 3.93 s
- Kd [10]: 1.16 µM
- kon [10]: 3.64e+06 M⁻¹ s⁻¹
- λon (apparent association time constant) [10]: 22.9 s
- τoff,1 (fast phase of dissociation) [10]: 0.25 s
- τoff,2 (slow phase of dissociation) [10]: 2.26 s
- Kd [11]: 3.23 µM
- kon [11]: 1.63e+06 M⁻¹ s⁻¹
- λon (apparent association time constant) [11]: 51 s
- τoff,1 (fast phase of dissociation) [11]: 0.19 s
- τoff,2 (slow phase of dissociation) [11]: 4.03 s
- Kd [12]: 6.06 µM
- kon [12]: 1.1e+06 M⁻¹ s⁻¹
- λon (apparent association time constant) [12]: 75.8 s
- τoff,1 (fast phase of dissociation) [12]: 0.15 s
- τoff,2 (slow phase of dissociation) [12]: 4.57 s
- τoff,1 (fast phase of dissociation) [13]: 0.08 s
- τoff,2 (slow phase of dissociation) [13]: 3.7 s
- Kd [14]: 3.4 µM
- kon [14]: 1.73e+06 M⁻¹ s⁻¹
- λon (apparent association time constant) [14]: 48.2 s
- τoff,1 (fast phase of dissociation) [14]: 0.17 s
- τoff,2 (slow phase of dissociation) [14]: 4.09 s
- τoff,1 (fast phase of dissociation) [15]: 0.13 s
- τoff,2 (slow phase of dissociation) [15]: 1.18 s

Substance: HP1αcdm (covalently dimerized HP1α, Atto532-labelled) (from UniProt P45973 1-177)
- Kd [10]: 0.13 µM
- kon [10]: 2.24e+07 M⁻¹ s⁻¹
- λon (apparent association time constant) [10]: 7.45 s
- τoff,1 (fast phase of dissociation) [10]: 0.33 s
- τoff,2 (slow phase of dissociation) [10]: 3.4 s
- Kd [16]: 0.14 µM

Substance: HP1α (W40A) (from UniProt P45973 1-191) (natural protein)
- τoff,1 (fast phase of dissociation) [10]: 0.1 s
- τoff,2 (slow phase of dissociation) [10]: 0.56 s

Substance: HP1α (I163E) (from UniProt P45973 1-191) (natural protein)
- λon (apparent association time constant) [10]: > 100 s
- τoff,1 (fast phase of dissociation) [10]: 0.23 s
- τoff,2 (slow phase of dissociation) [10]: 4.11 s

Substance: H3K9me3 1–14 peptide (from UniProt P68431 2-15)
- Kd (HP1α (I163E) (human)): 9.4 µM
- Kd [17]: 5.36 µM
- Kd [18]: 12.5 µM
